According to the supplement of paper PMC7877785:
± gives the uncertainty stated by the source.

Experiment: self-splicing fitness, log relative to wild type (ln ratio); higher = more splicing; Tetrahymena group I intron in knt gene, E. coli kanamycin selection, DiMSum; sequences stand for … in CUCUCU…GGAGGGAAAAGUUAUCAGGCAUGCACCUGGUAGCUAGUCUUUAAACCAAUAGAUUGCAUCGGUUUAAAAGGCAAGACCGUCAAAUUGCGGGAAAGGGGUCAACAGCCGUUCAGUACCAAGUCUCAGGGGAAACUUUGAGAUGGCCUUGCAAAGGGUAUGGUAAUAAGCUGACGGACAUGGUCCUAACCACGCAGCCAAGUCCUAAGUCAACAGAUCUUCUGUUGAUAUGGAUGCAGUUCACAGACUAAAUGUCGGUCGGGGAAGAUGUAUUCUUCUCAUAAGAUAUAGUCGGACCUCUCCUUAAUGGGAGCUAGCGGAUGAAGUGAUGCAACACUGGAGCCGCUGGGAACUAAUUUGUAUGCGAAAGUAUAUUGAUUAGUUUUGGAGUACUCGUGGUCG
Summary of the method: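 Colonies from six replicate transformations of E. coli BL21(DE3) were pooled and amplicon-sequenced on an Illumina HiSeq 2500. The library placed an intron with all eight P1ex-region nucleotides randomised inside the knt kanamycin-resistance gene on pET-22b(+), and cells grew overnight at 37°C or 30°C on LB agar with or without 25 μg/mL kanamycin (plus 100 μg/mL carbenicillin, 50 μM IPTG, 0.2% rhamnose). Fitness is the DiMSum error-weighted combination of wild-type-normalised replicate fold changes, kanamycin versus none.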

Sequence	self-splicing fitness (ln) (37 °C)	self-splicing fitness (ln) (30 °C)
CGAGAGCAAUAUUACGCAGG	-1.63 ± 0.17	
CGAGAGCAAUAUUACGCCUU	-1.07 ± 0.29	-3.73 ± 0.43
CGAGAGCAAUAUUACGCGAU	-1.04 ± 0.37	-3.7 ± 0.48
CGAGAGCAAUAUUACGCUGA	-0.634 ± 0.27	-2.91 ± 0.44
CGAGAGCAAUAUUACGGAAG	-2.54 ± 0.23	-3.57 ± 0.28
CGAGAGCAAUAUUACGGGCU	-2.18 ± 0.28	-3.67 ± 0.22
CGAGAGCAAUAUUACGGGGA	-1.74 ± 0.31	-3.24 ± 0.47
CGAGAGCAAUAUUACGGUAU	-2.88 ± 0.29	-3.41 ± 0.28
CGAGAGCAAUAUUACGGUGC	-3.43 ± 0.46	-3.73 ± 0.25
CGAGAGCAAUAUUACGUCAA	-2.4 ± 0.27	-3.22 ± 0.21
CGAGAGCAAUAUUACGUGCC	-2.05 ± 0.38	
CGAGAGCAAUAUUACGUGGG	-1.42 ± 0.28	-2.27 ± 0.35
CGAGAGCAAUAUUACGUUGU	-1.57 ± 0.19	
CGAGAGCAAUAUUACGUUUA	-3.25 ± 0.47	-3.35 ± 0.36
CGAUAGCAAUAUUACGAUCA	0.441 ± 0.087	-0.106 ± 0.06
CGAUAGCAAUAUUACGAUCC	0.104 ± 0.19	-0.714 ± 0.13
CGAUAGCAAUAUUACGAUGU	-0.614 ± 0.16	-0.22 ± 0.14
CGAUAGCAAUAUUACGAUUC	-0.777 ± 0.17	-3.87 ± 0.39
CGAUAGCAAUAUUACGCGCU	-1.02 ± 0.12	-0.899 ± 0.12
CGAUAGCAAUAUUACGGAUC	-2.6 ± 0.23	-3.1 ± 0.3
CGAUAGCAAUAUUACGGGAA	-2.33 ± 0.25	-2.74 ± 0.32
CGAUAGCAAUAUUACGGGCC	-1.8 ± 0.4	-1.62 ± 0.49
CGAUAGCAAUAUUACGUAGC	-2.68 ± 0.34	-3.25 ± 0.19
CGAUAGCAAUAUUACGUGCU	-1.34 ± 0.17	-3.92 ± 0.34

Sequence	self-splicing fitness (ln) (37 °C)	self-splicing fitness (ln) (30 °C)
CGAUAGCAAUAUUACGUGGU	-1.94 ± 0.12	-3.97 ± 0.16
CGAUAGCAAUAUUACGUGUC	-2.64 ± 0.16	-3.67 ± 0.2
CGCAAGCAAUAUUACGAACC	-0.722 ± 0.19	-2.01 ± 0.19
CGCAAGCAAUAUUACGACAG	0.344 ± 0.13	-0.409 ± 0.083
CGCAAGCAAUAUUACGAGAA	-2.03 ± 0.42	
CGCAAGCAAUAUUACGAGAC	-1.81 ± 0.21	-3.4 ± 0.22
CGCAAGCAAUAUUACGAUGA	-0.853 ± 0.071	-0.874 ± 0.064
CGCAAGCAAUAUUACGCAAG	-2.2 ± 0.31	-2.84 ± 0.31
CGCAAGCAAUAUUACGCCCU	0.327 ± 0.12	-0.736 ± 0.085
CGCAAGCAAUAUUACGCUCG	-2.95 ± 0.29	-3.87 ± 0.32
CGCAAGCAAUAUUACGGCCU	-0.135 ± 0.13	-2.59 ± 0.14
CGCAAGCAAUAUUACGGGAU	-2.95 ± 0.23	-4.29 ± 0.26
CGCAAGCAAUAUUACGGGGA	-2.69 ± 0.23	-3.1 ± 0.2
CGCAAGCAAUAUUACGGGUU	-2.7 ± 0.2	-4.62 ± 0.3
CGCAAGCAAUAUUACGGUAG	-0.388 ± 0.06	-0.472 ± 0.053
CGCAAGCAAUAUUACGGUUA	-0.121 ± 0.085	-2.32 ± 0.14
CGCAAGCAAUAUUACGUAAG	0.113 ± 0.093	-0.308 ± 0.067
CGCAAGCAAUAUUACGUCAA	-2.93 ± 0.14	-3.1 ± 0.12
CGCAAGCAAUAUUACGUCGA	-1.67 ± 0.14	-2.24 ± 0.16
CGCAAGCAAUAUUACGUUCG	-0.23 ± 0.082	-1.86 ± 0.069
CGCCAGCAAUAUUACGAGGC	-3.07 ± 0.32	-2.66 ± 0.2
CGCCAGCAAUAUUACGAGGG	-1.83 ± 0.18	-3.28 ± 0.17
CGCCAGCAAUAUUACGAGUC	-1.56 ± 0.24	-3.11 ± 0.28
CGCCAGCAAUAUUACGAUCA	-0.817 ± 0.34	-1.58 ± 0.32
